Measurements as given in US10377818B2, “Method of treating glioma” (The Board of Trustees of the Leland Stanford Junior …, priority 2015, dated 2019).

Key:
Format in all cases: cell-based, human
[1] = test system: NLGN3 mRNA in SU-pcGBM2 cells; test: qPCR of NLGN3 gene expression in SU-pcGBM2 cells; settings: 50 nM recombinant NLGN3, 12 hour vs vehicle
[2] = test system: PI3K pathway (phospho-AKT); test: Western blot of phospho-AKT as indicator of PI3K pathway activity; settings: recombinant NLGN3 0-50 nM, 1 hour
Description: (§1) A) Signaling through the PI3K pathway increases in response to NLGN3. Representative Western blot illustrating increased phosphorylation of AKT in response to various concentrations of NLGN3 ranging from 0-50 nM. p-AKT is shown in top panel; total AKT is shown in the bottom panel. B) Quantification of the increased fold change of pAKT/AKT ratio in response to NLGN3 at various doses (oneway ANOVA, F=17.99, P<001; data shown as mean±SEM; *P<0.05, **P<0.01, ***P<0.001 by Tukey's post-hoc tests to further examine pairwise comparisons). Fold change is normalized to blank media (aCSF). (C) Fos mRNA expression increases after 1 hour exposure to […] 50 nM NLGN3 (data shown as mean±SEM; **P<0.01 by unpaired two-tailed Student's t-test). D) NLGN3 mRNA expression increases after 12 hour exposure to 50 nM NLGN3 vs. vehicle in SU-[…] cells. Data shown as mean±SEM; *P<0.05 by unpaired two-tailed Student's t-test. […]
Endogenous protein levels were determined using Western blot analysis. […]
Briefly, in FIG. 5, panel A, cells were lysed after 1-hour exposure to 0 nM, 5 nM, 10 nM, or 50 nM recombinant NLGN3 (Origene Technologies, Rockville, Md.), using RIPA buffer and protease inhibitors. […] Protein concentration in the lysate was determined using a Bradford assay. […] Proteins were visualized using Clarity ECL Western Substrate (BioRad, Hercules, Calif.) and quantified using ImageJ.

SU-pcGBM2 cells = test: EdU incorporation assay, proliferation index of pHGG cells (SU-pcGBM2)
[3] = test system: MAPK pathway (phospho-ERK1/2 T202/Y204); test: Western blot of phospho-ERK1/2 as indicator of MAPK pathway activation; settings: NLGN3 50 nM vs aCSF
Description: A) Western blot analysis of phosphorylated ERK1/2 (Thr202/Tyr204) and total ERK1/2 in SU-pcBGM2 cells after exposure to either aCSF or NLGN3 (50 nM). […] B) Phosphorylated ERK1/2 levels were normalized to total ERK1/2 levels. […] All experiments performed in three biological replicates and analyzed by unpaired two-way Student's t-test. Data presented as mean±SEM. **P<0.01, ***P<0.001. n.s. indicates P>0.05.
Endogenous protein levels were determined using Western blot analysis. Briefly, after various treatments, 400,000 SU-pcGBM2 cells were lysed and loaded onto SDS-PAGE gels. Proteins were separated with gel electrophoresis and transferred to a PVDF membrane. Proteins were then probed for various antibodies as described in extended experimental procedures.

Fos mRNA = test: qPCR of Fos gene expression in pHGG cells; settings: 50 nM NLGN3, 1 hour vs vehicle
Description: as §1, with “cells.” for “cells. Data shown as mean±SEM; *P<0.05 by unpaired two-tailed Student's t-test.”
After various cell treatments (described in extended experimental procedures), RNA was extracted from 500,000 SU-pcGBM2 or SU-[…] cells using TRIzol reagent. cDNA was generated using RT-PCR, and gene expression changes were further probed using quantitative PCR.
500,000 SU-pcGBM2 cells were exposed to either aCSF, 50 nM NLGN3 (Origene Technologies, Rockville), 500 nM BKM120 (SelleckChem, Houston, Tex.), 50 nM EGF (Shenandoah, Warwick, R.I.), or a combination of the above treatments. […] Differential expression was determined using the delta CT method. […]

B1: NLGN3: Recombinant full-length neuroligin-3 (Origene), tested as glioma mitogen (protein, listed as Mus musculus)
chain: MWLQPSLSLSPTPTVGRSLCLTLGFLSLVLRASTQAPAPTVNTHFGKLRGARVPLPSEILGPVDQYLGVPYAAPPIGEKRFLPPEPPPSWSGIRNATHFPPVCPQNIHTAVPEVMLPVWFTANLDIVATYIQEPNEDCLYLNVYVPTEDGSGAKKQGEDLADNDGDEDEDIRDSGAKPVMVYIHGGSYMEGTGNMIDGSVLASYGNVIVITLNYRVGVLGFLSTGDQAAKGNYGLLDQIQALRWVSENIAFFGGDPRRITVFGSGIGASCVSLLTLSHHSEGLFQRAIIQSGSALSSWAVNYQPVKYTSLLADKVGCNVLDTVDMVDCLRQKSAKELVEQDIQPARYHVAFGPVIDGDVIPDDPEILMEQGEFLNYDIMLGVNQGEGLKFVEGVVDPEDGVSGTDFDYSVSNFVDNLYGYPEGKDTLRETIKFMYTDWADRDNPETRRKTLVALFTDHQWVEPSVVTADLHARYGSPTYFYAFYHHCQSLMKPAWSDAAHGDEVPYVFGVPMVGPTDLFPCNFSKNDVMLSAVVMTYWTNFAKTGDPNKPVPQDTKFIHTKANRFEEVAWSKYNPRDQLYLHIGLKPRVRDHYRATKVAFWKHLVPHLYNLHDMFHYTSTTTKVPPPDTTHSSHITRRPNGKTWSTKRPAISPAYSNENAPGSWNGDQDAGPLLVENPRDYSTELSVTIAVGASLLFLNVLAFAALYYRKDKRRQEPLRQPSPQRGTGAPELGTAPEEELAALQLGPTHHECEAGPPHDTLRLTALPDYTLTLRRSPDDIPLMTPNTITMIPNSLVGLQTLHPYNTFAAGFNSTGLPHSHSTTRV
NLGN3 gene expression [1]: increase in glioma cell NLGN3 gene expression
phospho-AKT levels relative to total AKT [2]: increased phospho-AKT levels relative to total AKT in a dose-dependent manner
proliferation index (SU-pcGBM2 cells; pHGG cells exposed to 50 nM NLGN3, 24 h, EdU): 0.40±0.01
effect on proliferation index, dose curve (SU-pcGBM2 cells; recombinant NLGN3 0-100 nM, 24 hours): promotes proliferation, matching the mitogenic effect of active CM at low nanomolar concentrations
effect on proliferation index relative to aCSF control (SU-pcGBM2 cells; recombinant candidate proteins at 100 nM for 24 hours): promote glioma cell proliferation
phospho-ERK1/2 T202/Y204 [3]: did not reveal upregulation
Fos gene expression (Fos mRNA): upregulation of Fos gene expression
